Data taken from the Human Domainome abundance scans (Beltran et al. 2025).
± gives the uncertainty stated by the source.

B1: DNA topoisomerase 3-alpha, residues 812 to 851; numbered along this chain, Q13472 (parent)
chain: TCNCGQEAVLLTVRKEGPNRGRQFFKCNGGSCNFFLWADS
B2: Zinc finger homeobox protein 3, residues 2147 to 2202; numbered along this chain, Q15911 (parent)
chain: RPRTRITDDQLRVLRQYFDINNSPSEEQIKEMADKSGLPQKVIKHWFRNTLFKERQ

Variants of: B1
Assay: abundance fitness (aPCA) (normalised: wild type 0, dead -1); higher = more abundant; growth selection in yeast, the domain comes from the species named
Settings: Homo sapiens

Variant	abundance fitness
N3R	-0.539 ± 0.1
N3G	-0.739 ± 0.15
N3D	-0.006 ± 0.068
N3L	-0.32 ± 0.091
L10V	-0.357 ± 0.17
L10K	-0.065 ± 0.12
L10G	-0.474 ± 0.11
L10S	-0.33 ± 0.078
L10T	-0.068 ± 0.47
L10R	-0.126 ± 0.076
L10E	-0.168 ± 0.11
L10A	-0.284 ± 0.087
A8M	-0.172 ± 0.06
A8E	-0.644 ± 0.11
A8L	-0.238 ± 0.12
A8R	-0.543 ± 0.11
A8W	-0.367 ± 0.15
A8F	-1 ± 0.44
A8S	-0.369 ± 0.058
A8D	-0.903 ± 0.37
A8P	0.309 ± 0.088
G5A	-0.437 ± 0.22
G5V	-0.714 ± 0.098
G5R	-0.467 ± 0.11
G5M	-0.267 ± 0.095

Variant	abundance fitness
G5L	-0.666 ± 0.059
G5C	-0.484 ± 0.063
G5S	-0.377 ± 0.22
G5K	-0.263 ± 0.11
G5Q	-0.259 ± 0.073
G5H	-0.419 ± 0.14
Q6R	0.038 ± 0.22
Q6A	0.229 ± 0.12
Q6G	-0.182 ± 0.12
Q6V	-0.338 ± 0.15
V13S	-0.234 ± 0.14
T12V	-0.47 ± 0.083
T12Y	-0.356 ± 0.18
T12W	-0.721 ± 0.2
T12Q	-0.24 ± 0.32
T12H	-0.383 ± 0.2
T12A	-0.59 ± 0.3
T12P	-0.528 ± 0.11
T12R	-0.437 ± 0.086
T12K	-0.347 ± 0.057
T12E	-0.722 ± 0.22
T12S	-0.475 ± 0.23
T12C	-0.39 ± 0.2
P18V	-0.149 ± 0.067
P18C	-0.482 ± 0.18

Variant	abundance fitness
P18L	-0.352 ± 0.21
P18H	-0.353 ± 0.12
P18A	-0.058 ± 0.072
P18M	-0.336 ± 0.072
P18R	-0.252 ± 0.11
P18W	-0.716 ± 0.14
E16N	-0.018 ± 0.054
E16S	-0.344 ± 0.33
E16A	-0.185 ± 0.063
E16L	-0.246 ± 0.058
E16G	-0.266 ± 0.069
E16C	-0.342 ± 0.087
E16R	-0.165 ± 0.079
E16V	-0.5 ± 0.34
E16Y	-0.421 ± 0.17
E16T	-0.13 ± 0.087
E16P	-0.196 ± 0.15
E16K	-0.071 ± 0.1
N19W	-0.454 ± 0.13
N19S	-0.168 ± 0.097
N19H	0.157 ± 0.1
N19D	0.069 ± 0.046
N19E	-0.222 ± 0.19
N19V	-0.54 ± 0.1
N19A	-0.509 ± 0.097

Variant	abundance fitness
N19L	-0.195 ± 0.073
N19T	-0.075 ± 0.071
N19G	-0.537 ± 0.14
N19R	-0.777 ± 0.49
N19M	0.085 ± 0.14
L11C	-0.208 ± 0.17
L11R	0.049 ± 0.053
L11V	0.031 ± 0.06
L11W	-0.072 ± 0.072
L11A	0.012 ± 0.23
L11S	0.008 ± 0.057
L11T	0.027 ± 0.081
L11Q	0.054 ± 0.086
L11G	0.041 ± 0.064
V9L	0.12 ± 0.26
V9G	-0.355 ± 0.046
V9C	-0.226 ± 0.11
V9R	-0.154 ± 0.063
V9Q	-0.04 ± 0.067
V9P	-0.227 ± 0.099
V9S	-0.194 ± 0.091
R14E	0.001 ± 0.054
R14K	0.089 ± 0.11
R14G	-0.092 ± 0.043
R14S	-0.094 ± 0.084

Variant	abundance fitness
R14Q	0.001 ± 0.095
R14T	-0.052 ± 0.17
R14W	-0.075 ± 0.06
R14P	-0.312 ± 0.065
R14M	0.06 ± 0.057
R14V	-0.037 ± 0.048
R14A	-0.006 ± 0.047
R14C	-0.15 ± 0.09
R14N	-0.166 ± 0.34
R14Y	-0.052 ± 0.11
R14L	-0.099 ± 0.068
E7P	-0.023 ± 0.088
E7G	-0.221 ± 0.051
E7R	-0.18 ± 0.093
E7S	-0.233 ± 0.15
E7H	-0.142 ± 0.1
T1Q	-0.24 ± 0.19
T1W	-0.858 ± 0.47
G17W	-0.684 ± 0.26
G17V	-0.675 ± 0.14
G17P	-0.89 ± 0.46
G17L	-0.606 ± 0.071
G17A	-0.676 ± 0.17
G17Q	-0.681 ± 0.11
G17I	-0.263 ± 0.16

Variant	abundance fitness
G17R	-0.665 ± 0.14
K15N	0.031 ± 0.11
K15D	0.06 ± 0.09
K15F	-0.136 ± 0.12
K15R	0.108 ± 0.15
K15G	0.318 ± 0.21
K15A	-0.282 ± 0.13
K15T	0.067 ± 0.045
K15E	0.105 ± 0.059
K15L	-0.325 ± 0.059
K15Y	-0.299 ± 0.099
K15M	-0.066 ± 0.18
K15C	-0.342 ± 0.064
K15W	-0.126 ± 0.19
C4R	-0.907 ± 0.26
C4L	-1.24 ± 0.41
C4V	-1.09 ± 0.19
C4G	-1.3 ± 0.26
C2F	-0.827 ± 0.38
C2S	-0.593 ± 0.24
C2G	-0.601 ± 0.36

Variants of: B2
Assay: as above
Settings: Homo sapiens

Variant	abundance fitness
V13Y	-0.037 ± 0.071
T7A	-0.024 ± 0.074
T7L	-0.273 ± 0.077
T7P	-0.086 ± 0.1
T7K	-0.336 ± 0.09
T7I	-0.596 ± 0.13
D19W	-0.131 ± 0.076
E31M	-0.133 ± 0.16
Q16F	-0.196 ± 0.18
Q16W	-0.09 ± 0.075
Q16T	-0.012 ± 0.091
Q16I	-0.469 ± 0.18
Q16S	0.122 ± 0.076
Q16H	-0.101 ± 0.16
R12Q	-0.082 ± 0.086
R12I	0.046 ± 0.098
R12N	-0.061 ± 0.11
F52P	-0.059 ± 0.18
F52A	0.074 ± 0.083
E54K	-0.344 ± 0.15
E54S	-0.128 ± 0.093
